{"source": "patent US20250043302A1", "about": "“MUTATED HYDROXYPHENYLPYRUVATE DIOXYGENASE POLYPEPTIDE, AND CODING GENE AND USE THEREOF” (BEIJING DABEINONG BIOTECHNOLOGY CO., LTD., priority 2021, published 2025)", "key": {"[1]": {"test_system": "Arabidopsis thaliana T1 plants", "experiment": "Isoxaflutole tolerance of transgenic Arabidopsis thaliana T1 plants (spray, bleached leaf area grade, damage score);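 on Scores: Weighted damage index from 0 to 100 where higher means more damage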", "format": "in vivo", "details": "Table 11; for Classification and statistics of the grade of pesticide damage Grade 0: number of plants at grade 0; for Classification and statistics of the grade of pesticide damage Grade 1: number of plants at grade 1; for Classification and statistics of the grade of pesticide damage Grade 2: number of plants at grade 2; for Classification and statistics of the grade of pesticide damage Grade 3: number of plants at grade 3; for Scores: pesticide damage score", "from_the_text": "(§1) T1 transformants were initially selected from the untransformed seeds using a glufosinate selection scheme. The Arabidopsis thaliana T1 plants (AsHPPD-02) into which the AsHPPD-02 nucleotide sequence was introduced, the Arabidopsis thaliana T1 plants (AsHPPDm-F372A-02) into which the AsHPPDm-F372A-02 nucleotide sequence was introduced, the Arabidopsis thaliana T1 plants (AsHPPDm-F383W-02) into which the AsHPPDm-F383W-02 nucleotide sequence was introduced, the Arabidopsis thaliana T1 plants (AsHPPDm-F372A-F383W-02) into which the AsHPPDm-F372A-F383W-02 nucleotide sequence was introduced, the Arabidopsis thaliana T1 plants (DBN11726N) into which the control recombinant expression vector DBN11726N was introduced, and the wild-type Arabidopsis thaliana plants (CK) (18 days after sowing) were sprayed respectively with topramezone at three concentrations (100 g ai/ha (four-fold field concentration, 4×), 200 g ai/ha (eight-fold field concentration, 8×), and 0 g ai/ha (water, 0×)), isoxaflutole at three concentrations (140 g ai/ha (two-fold field concentration, 2×), 280 g ai/ha (four-fold field concentration, 4×), and 0 g ai/ha (water, 0×)), and mesotrione at three concentrations (210 g ai/ha (two-fold field concentration, […]), 420 g ai/ha (four-fold field concentration, 4×), and 0 g ai/ha (water, 0×)), to determine the tolerance of Arabidopsis thaliana to the herbicides. The degree of damage caused by the herbicide was measured for each plant according to the proportion of bleached leaf area (the proportion of bleached leaf area=bleached leaf area/total leaf area×100%) 7 days after spraying (7 DAT): the case where there is basically no bleached phenotype is defined as grade 0, the case where the proportion of bleached leaf area is less than 50% is defined as grade 1, the case where the proportion of bleached leaf area is more than 50% is defined as grade 2, and the case where the proportion of bleached leaf area is 100% grade is defined as grade 3.\n(§2) According to the method as described above in point 6 of Example 1, the aforementioned Arabidopsis thaliana T1 plants and wild-type Arabidopsis thaliana plants (CK) (18 days after sowing) were sprayed respectively with topramezone at three concentrations (25 g ai/ha (one-fold field concentration, 1×). 100 g ai/ha (four-fold field concentration, 4×), and 0 g ai/ha (water, 0×)), isoxaflutole at three concentrations (35 g ai/ha (half-fold field concentration, 0.5×). 70 g ai/ha (one-fold field concentration, 1×), and 0 g ai/ha (water, 0×)), and mesotrione at three concentrations (52.5 g ai/ha (half-fold field concentration, 0.5×), 105 g ai/ha (one-fold field concentration, 1×), and 0 g ai/ha (water, 0×)) to detect the tolerance of Arabidopsis thaliana to the herbicides.\n(§3) According to the method as described above in point 6 of Example 1, the aforementioned Arabidopsis thaliana T1 plants and wild-type Arabidopsis thaliana plants (CK) (18 days after sowing) were sprayed with topramezone at three different concentrations (i.e., 100 g ai/ha (four-fold field concentration, 4×), 200 g ai/ha (eight-fold field concentration, 8×) and 0 g ai/ha (water, 0×)), isoxaflutole at three different concentrations (i.e., 140 g ai/ha (two-fold field concentration, 2×), 280 g ai/ha (four-fold field concentration, 4×) and 0 g ai/ha (water, 0×)), and mesotrione at three different concentrations (i.e., 210 g ai/ha (two-fold field concentration, 2×), 420 g ai/ha (four-fold field concentration, 4×) and 0 g ai/ha (water, 0×)) respectively to detect the herbicide tolerance of Arabidopsis thaliana. […]"}, "[2]": {"test_system": "Arabidopsis thaliana T1 plants", "experiment": "Mesotrione tolerance of transgenic Arabidopsis thaliana T1 plants (spray, bleached leaf area grade, damage score)", "format": "in vivo", "design": "Scores: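 damage score 0-100 computed as Σ(N×S)/(T×M)×100 over grades 0-3 with higher meaning more damage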", "details": "Table 12; for Classification and statistics of the grade of pesticide damage Grade 0: number of plants at grade 0; for Classification and statistics of the grade of pesticide damage Grade 1: number of plants at grade 1; for Classification and statistics of the grade of pesticide damage Grade 2: number of plants at grade 2; for Classification and statistics of the grade of pesticide damage Grade 3: number of plants at grade 3; for Scores: pesticide damage score", "from_the_text": "as §1, §2, §3"}}}
{"molecule": "AsHPPDm-A107-F383W-02: nucleotide sequence encoding Avena sativa HPPD with A107 deletion+F383W; vector DBN11779 (nucleic acid, AsHPPDm-A107-F383W-02 Nucleotide Sequence, vector DBN11779) DNA: ATGCCACCTACTCCAGCTACAGCTACTGGTGCTGCTGCTGCTGCCGTTACTCCTGAGCACGCTGCCAGGTCATTCCCCAGGGTGGTTCGCGTGAACCCCAGATCTGATAGGTTCCCAGTTCTGAGCTTCCACCATGTTGAGCTGTGGTGCGCTGATGCTGCTTCTGCTGCTGGCAGGTTCTCTTTCGCTCTTGGTGCTCCACTCGCTGCTAGATCTGATCTGTCTACAGGAAATAGCGCTCATGCCTCACTCCTGCTTCGCTCAGGTGCTTTGGCCTTCCTCTTCACCGCTCCATATGCTCCCCCACCTCAGGAGGCTACTGCTGCTGCTACAGCCTCCATTCCAAGCTTCTCAGCTGATGCCGCTAGAACCTTCGCTGCTGCTCATGGACTTGCCGTGAGGTCTGTTGGTGTTCGCGTGGCTGATGCTGCTGAGGCTTTCAGAGTTTCCGTTGCCGGCGGAGCTAGGCCAGCTTTCGCTCCTGCTGATTTGGGACATGGTTTCGGCCTGGCTGAGGTTGAGCTTTACGGTGACGTGGTTCTCCGCTTCGTGTCTTACCCAGATGAGACTGACCTGCCTTTCCTTCCCGGCTTCGAGAGAGTTTCCTCTCCTGGTGCCGTGGATTACGGCCTGACAAGGTTCGACCACGTGGTTGGAAACGTTCCCGAGATGGCTCCAGTGATCGATTACATGAAGGGCTTCCTTGGATTCCATGAGTTCGCCGAGTTCACTGCTGAGGACGTGGGAACCACTGAGTCCGGTTTGAACTCTGTGGTTCTCGCCAACAATTCTGAGGCTGTTTTGCTCCCTCTGAATGAGCCTGTGCATGGAACCAAGAGGAGAAGCCAGATTCAAACTTACCTGGAGTACCACGGTGGCCCTGGAGTTCAGCATATCGCCCTTGCTTCTAATGATGTGTTGCGCACACTCAGAGAGATGCGCGCCAGAACCCCCATGGGAGGTTTCGAGTTCATGGCCCCACCACAGGCTAAGTACTACGAGGGCGTTAGAAGGATTGCTGGAGACGTGTTGAGCGAGGAGCAGATCAAGGAGTGCCAAGAGCTGGGTGTTCTTGTGGATAGGGATGACCAGGGCGTTCTGCTTCAAATTTTCACTAAGCCAGTGGGCGACCGCCCTACATTCTGGCTTGAGATGATTCAAAGAATCGGCTGCATGGAGAAGGATGAGGTTGGACAGGAGTACCAAAAGGGCGGATGCGGTGGCTTCGGAAAGGGTAACTTCAGCGAGTTGTTCAAGTCAATCGAGGACTACGAGAAGAGCCTCGAGGTGAAGCAGTCAGTGGTTGCCCAAAAGTCCTGA", "values": [{"measurement": "Resistance evaluation", "setting": "[1]; isoxaflutole 140 g ai/ha (2×)", "result": "Moderately"}, {"measurement": "Classification and statistics of the grade of pesticide damage Grade 0", "setting": "[1]; isoxaflutole 140 g ai/ha (2×)", "result": 7}, {"measurement": "Classification and statistics of the grade of pesticide damage Grade 1", "setting": "[1]; isoxaflutole 140 g ai/ha (2×)", "result": 7}, {"measurement": "Classification and statistics of the grade of pesticide damage Grade 2", "setting": "[1]; isoxaflutole 140 g ai/ha (2×)", "result": 1}, {"measurement": "Classification and statistics of the grade of pesticide damage Grade 3", "setting": "[1]; isoxaflutole 140 g ai/ha (2×)", "result": 1}, {"measurement": "Scores", "setting": "[1]; isoxaflutole 140 g ai/ha (2×)", "result": 25}, {"measurement": "Resistance evaluation", "setting": "[1]; isoxaflutole 280 g ai/ha (4×)", "result": "Poorly resistant"}, {"measurement": "Classification and statistics of the grade of pesticide damage Grade 0", "setting": "[1]; isoxaflutole 280 g ai/ha (4×)", "result": 4}, {"measurement": "Classification and statistics of the grade of pesticide damage Grade 1", "setting": "[1]; isoxaflutole 280 g ai/ha (4×)", "result": 4}, {"measurement": "Classification and statistics of the grade of pesticide damage Grade 2", "setting": "[1]; isoxaflutole 280 g ai/ha (4×)", "result": 7}, {"measurement": "Classification and statistics of the grade of pesticide damage Grade 3", "setting": "[1]; isoxaflutole 280 g ai/ha (4×)", "result": 1}, {"measurement": "Scores", "setting": "[1]; isoxaflutole 280 g ai/ha (4×)", "result": 44}, {"measurement": "Resistance evaluation", "setting": "[2]; mesotrione 210 g ai/ha (2×)", "result": "Moderately"}, {"measurement": "Classification and statistics of the grade of pesticide damage Grade 0", "setting": "[2]; mesotrione 210 g ai/ha (2×)", "result": 4}, {"measurement": "Classification and statistics of the grade of pesticide damage Grade 1", "setting": "[2]; mesotrione 210 g ai/ha (2×)", "result": 9}, {"measurement": "Classification and statistics of the grade of pesticide damage Grade 2", "setting": "[2]; mesotrione 210 g ai/ha (2×)", "result": 3}, {"measurement": "Classification and statistics of the grade of pesticide damage Grade 3", "setting": "[2]; mesotrione 210 g ai/ha (2×)", "result": 0}, {"measurement": "Scores", "setting": "[2]; mesotrione 210 g ai/ha (2×)", "result": 31}, {"measurement": "Resistance evaluation", "setting": "[2]; mesotrione 420 g ai/ha (4×)", "result": "Poorly resistant"}, {"measurement": "Classification and statistics of the grade of pesticide damage Grade 0", "setting": "[2]; mesotrione 420 g ai/ha (4×)", "result": 0}, {"measurement": "Classification and statistics of the grade of pesticide damage Grade 1", "setting": "[2]; mesotrione 420 g ai/ha (4×)", "result": 2}, {"measurement": "Classification and statistics of the grade of pesticide damage Grade 2", "setting": "[2]; mesotrione 420 g ai/ha (4×)", "result": 14}, {"measurement": "Classification and statistics of the grade of pesticide damage Grade 3", "setting": "[2]; mesotrione 420 g ai/ha (4×)", "result": 0}, {"measurement": "Scores", "setting": "[2]; mesotrione 420 g ai/ha (4×)", "result": 63}]}
